Assay results from the RNAGym collection of RNA variant scans (doi:10.7554/elife.80360).

B1: CPEB3 Ribozyme (parent)
chain: GGGGGCCACAGCAGAAGCGUUCACGUCGCGGCCCCUGUCAGAUUCUGGUGAAUCUGCGAAUUCUGCUGU

Variants of: B1
Assay: self-cleavage, relative activity (ratio to wild type); higher = more cleavage; co-transcriptional

Variant | self-cleavage
A15G C22A | 0.191
A15G C22G | 0.157
A15C U67A | 0.916
A15C U67C | 0.888
A15U G50A | 0.943
A15U G41A | 0.28
A16C C24U | 0.164
A16C C24A | 0.161
A15G U38A | 0.877
A16C U46G | 0.309
A16C U46C | 0.293
A16C A42G | 0.24
A16C G31U | 0.124
A16C G31A | 0.0686
A16C G31C | 0.113
A15G A23C | 0.919
A15U C63G | 0.764
A15G U21C | 0.847
A16C C18U | 0.128
A15C G58U | 0.936
A16C G48C | 0.409
A15G G30C | 0.618
A15G C29U | 0.358
A16C C32A | 0.0786

Variant | self-cleavage
A15G C24G | 0.405
A15G C24U | 0.87
A16C G25C | 0.0921
A15U A51U | 0.851
A15G G47U | 1.04
A15G G47C | 1.05
A15G C39U | 0.893
A15G C39G | 0.928
A16C C22U | 0.0688
A15C U43G | 0.491
A15C U43A | 0.459
A15G G28C | 0.165
A15U C45U | 0.858
A15U C45A | 0.795
A15G A60U | 0.579
A15G A59C | 0.649
A16C C45G | 0.272
A16C C45A | 0.264
A16C C45U | 0.339
A15G C66G | 0.862
A15G G65A | 0.82
A16C C34A | 0.165
A15G C32G | 0.415
A16C G28U | 0.113

Variant | self-cleavage
A15U A60U | 0.325
A15C U46G | 0.929
A15U U21A | 0.841
A15G G68U | 1.01
A16C A60C | 0.215
A16C A52G | 0.389
A15U U46A | 0.985
A15U U46G | 0.898
A15G G17C | 0.138
A15U A52G | 0.939
A15G A51G | 1.05
A15G A51U | 0.963
A16C C57A | 0.129
A16C C57G | 0.0856
A15U U62A | 1.01
A16C U20A | 0.0817
A16C U20C | 0.125
A16C C33U | 0.261
A16C U43C | 0.204
A16C U43G | 0.198
A15U C39U | 0.583
A15U G68U | 0.967
A15U G68A | 0.937
A15G U62G | 0.94

Variant | self-cleavage
A15C U55G | 0.32
A15C U26G | 0.586
A15G G31U | 0.558
A15G G50C | 0.956
A15G G50U | 0.995
A15G U46G | 0.974
A15G U46A | 1.04
A15U A16G | 0.56
A15U G17C | 0.171
A15U U55G | 0.335
A15G U53A | 0.893
A15U C32U | 0.913
A16C G65C | 0.174
A15C U49A | 0.889
A16C C39U | 0.184
A16C C39G | 0.151
A15U G48U | 0.9
A15U G48C | 0.965
A15C U53C | 0.451
A15C U53G | 0.558
A15G C57U | 0.294
A15U C57U | 0.323
A16C G30U | 0.131
A16C G30A | 0.188

Variant | self-cleavage
A15U C35A | 0.192
A15U C35G | 0.187
A15U U38C | 0.613
A15U G28A | 0.161
A15G U20C | 0.126
A15U U44G | 0.713
A15U U44C | 0.516
A15C U21G | 0.157
A16C A59U | 0.221
A16C A59C | 0.106
A15G U64A | 0.845
A15G U64C | 0.939
A16C G56A | 0.231
A16C G56C | 0.131
A15G A16C | 0.145
A15U G56U | 0.517
A15C G47C | 0.894
A15U C27U | 0.153
A15U G25C | 0.165
A15U G25A | 0.121
A16C C66U | 0.203
A16C G68U | 0.408
A15U C33G | 0.294
A15U C29U | 0.151

Variant | self-cleavage
A16C U44G | 0.307
A16C U44A | 0.0709
A15U A40U | 0.288
A15C G50U | 0.878
A15U U67C | 0.827
A15C U69G | 1.02
A15C U69A | 0.962
A15G U44A | 0.987
A15G U44G | 0.954
A15G U44C | 0.99
A15U U69A | 0.961
A15U U69C | 1.03
A16C G50U | 0.306
A16C G50A | 0.23
A15G G37C | 0.239
A16C G41C | 0.18
A15C G56C | 0.446
A15G A40U | 0.851
A15G A40C | 0.631
A15U G65A | 0.753
A15U G65U | 0.47
A16C U61C | 0.26
A16C U61A | 0.418
A15C G68A | 0.966

Variant | self-cleavage
A15G G41C | 0.777
A15G G41A | 0.732
A15C G65U | 0.411
A15C G65C | 0.277
A16C A40G | 0.16
A15U C24A | 0.299
A16C U62A | 0.152
A16C U21C | 0.174
A15G U43A | 0.851
A15G U43G | 0.779
A15U A42G | 0.68
A16C U55C | 0.165
A15U U61A | 0.931
A15G G58A | 0.964
A15G A42U | 0.946
A15G A52U | 0.959
A15G A52G | 1.03
A16C U53A | 0.16
A15U U36C | 0.557
A16C G47U | 0.427
A15C U62C | 0.841
A15C U62A | 0.912
A15C U62G | 1.02
